Source: patent US20120094356A1

Target: trypsin
Experiment: trypsin inhibition assay, 10 nM each, chromogenic substrate; Ka calculated

Substance: human growth hormone/alpha-1 antitrypsin fusion [T109wt: α1AT/hGH]
- Ka: 7.5e+08 M⁻¹
